First the molecules themselves.
B1: SMG5 (parent)
chain: TNPDLIIVCAQSSQSLWNRLSVLL
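Note: lentivirally expressed fusions sorted by FACS into six bins by GFP to DsRed ratio, PSI derived from sequencing read proportions per bin multiplied by bin number.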

The variants in the data set derive from B1. The data set is described as follows: protein stability index of a GFP-peptide fusion (GPS, HEK-293T) (PSI 1-6); higher = more stable. The conditions noted are these: c terminus: a fixed tail appended.
TNPDLIIVCDQSSQSLWNRLSVLL: the protein stability index was determined as 2.01.
Regarding TNPDLIIVCPQSSQSLWNRLSVLL, the protein stability index amounted to 4.01.
In the case of TNPDLIIVCTQSSQSLWNRLSVLL, the protein stability index came out at 2.17.
As for TNPDLIIVCKQSSQSLWNRLSVLL, the figure is 1.59.
As for TNPDLIIVCFQSSQSLWNRLSVLL, the figure is 3.77.
To TNPDLIIVCHQSSQSLWNRLSVLL belongs 2.68; to TNPDLIIVCQQSSQSLWNRLSVLL, 2.4.
Take TNPDLIIVCWQSSQSLWNRLSVLL: the protein stability index is 2.35.
With TNPDLIIVCGQSSQSLWNRLSVLL, the protein stability index was determined as 1.98.
As for TNPDLIIVCVQSSQSLWNRLSVLL, the protein stability index came to 4.35.
Turning to TNPDLIIVCNQSSQSLWNRLSVLL, the protein stability index came out at 1.95.
As to TNPDLIIVCYQSSQSLWNRLSVLL, the protein stability index was found to be 3.09.
For the variant TNPDLIIVCIQSSQSLWNRLSVLL, the protein stability index was 3.25.
To TNPDLIIVCSQSSQSLWNRLSVLL belongs 2.94; to TNPDLIIVCRQSSQSLWNRLSVLL, 1.8; to TNPDLIIVCMQSSQSLWNRLSVLL, 2.8.
To TNPDLIIVCAQSSMSLWNRLSVLL belongs 2.22; to TNPDLIIVCAQSSKSLWNRLSVLL, 3.23.
As for TNPDLIIVCAQSSLSLWNRLSVLL, the figure is 1.6.
For the variant TNPDLIIVCAQSSYSLWNRLSVLL, the protein stability index is 3.2.
As for TNPDLIIVCAQSSNSLWNRLSVLL, the figure is 2.81.
As for TNPDLIIVCAQSSVSLWNRLSVLL, the figure is 3.03; as for TNPDLIIVCAQSSTSLWNRLSVLL, 3.58; as for TNPDLIIVCAQSSGSLWNRLSVLL, 2.23.
As for TNPDLIIVCAQSSDSLWNRLSVLL, the figure is 3.38; as for TNPDLIIVCAQSSSSLWNRLSVLL, 2.68; as for TNPDLIIVCAQSSPSLWNRLSVLL, 2.09.
For TNPDLIIVCAQSSESLWNRLSVLL, the protein stability index amounted to 1.6.
To TNPDLIIVCAQSSASLWNRLSVLL belongs 3.98; to TNPDLIIVCAQSSRSLWNRLSVLL, 2.73.
On to TNPDLIIVCAQSSQFLWNRLSVLL, for which the protein stability index turned out to be 4.58.
Take TNPDLIIVCAQSSQDLWNRLSVLL: the protein stability index is 2.19.
For TNPDLIIVCAQSSQTLWNRLSVLL, the protein stability index came to 1.44.
As for TNPDLIIVCAQSSQRLWNRLSVLL, the figure is 1.25.
To TNPDLIIVCAQSSQALWNRLSVLL belongs 2.62; to TNPDLIIVCAQSSQPLWNRLSVLL, 3.51.
Consider TNPDLIIVCAQSSQLLWNRLSVLL, for which the protein stability index worked out at 2.45.
To TNPDLIIVCAQSSQQLWNRLSVLL belongs 2.12; to TNPDLIIVCAQSSQMLWNRLSVLL, 3.28; to TNPDLIIVCAQSSQHLWNRLSVLL, 2.18.
To TNPDLIIVCAQSSQCLWNRLSVLL belongs 3.21.
As for TNPDLIIVCAQSSQKLWNRLSVLL, the figure is 3.11; as for TNPDLIIVCAQSSQILWNRLSVLL, 4.01; as for TNPDLIIVCAQSSQNLWNRLSVLL, 3.11.
With TNPDLIIVCAQSSQELWNRLSVLL, the protein stability index amounted to 2.58.
As for TNPDLIIVCAQSSQGLWNRLSVLL, the figure is 2.9; as for TNPDLIIVCAQSWQSLWNRLSVLL, 1.55; as for TNPDLIIVCAQSYQSLWNRLSVLL, 3.59.
To TNPDLIIVCAQSDQSLWNRLSVLL belongs 1.59; to TNPDLIIVCAQSMQSLWNRLSVLL, 2.
As for TNPDLIIVCAQSRQSLWNRLSVLL, the figure is 1.36; as for TNPDLIIVCAQSIQSLWNRLSVLL, 1.41; as for TNPDLIIVCAQSQQSLWNRLSVLL, 1.83.
In the case of TNPDLIIVCAQSTQSLWNRLSVLL, the protein stability index stood at 3.23.
Turning to TNPDLIIVCAQSGQSLWNRLSVLL, the protein stability index stood at 2.42.
For TNPDLIIVCAQSHQSLWNRLSVLL, the protein stability index is 1.53.
Consider TNPDLIIVCAQSPQSLWNRLSVLL, for which the protein stability index was 3.21.
For the variant TNPDLIIVCAQSCQSLWNRLSVLL, the protein stability index came out at 2.21.
For TNPDLIIVCAQSLQSLWNRLSVLL, the protein stability index came to 2.97.
Consider TNPDLIIVCAQSVQSLWNRLSVLL, for which the protein stability index amounted to 1.88.
Take TNPDLIIVCAQSAQSLWNRLSVLL: the protein stability index worked out at 1.16.
With TNPDLIIVCAQSKQSLWNRLSVLL, the protein stability index was 2.48.
To TNPDLIIVCAQSNQSLWNRLSVLL belongs 2.7.
As for TNPDLIIVCAQSEQSLWNRLSVLL, the figure is 1.57; as for TNPDLIIVCAQSFQSLWNRLSVLL, 1.49; as for TNPDLIIVCAKSSQSLWNRLSVLL, 2.89.
Consider TNPDLIIVCATSSQSLWNRLSVLL, for which the protein stability index was found to be 3.57.
To TNPDLIIVCAESSQSLWNRLSVLL belongs 1.32; to TNPDLIIVCANSSQSLWNRLSVLL, 2; to TNPDLIIVCACSSQSLWNRLSVLL, 3.76.
As for TNPDLIIVCAGSSQSLWNRLSVLL, the figure is 2.09; as for TNPDLIIVCAWSSQSLWNRLSVLL, 1.54; as for TNPDLIIVCALSSQSLWNRLSVLL, 3.05.
In the case of TNPDLIIVCAMSSQSLWNRLSVLL, the protein stability index was 2.81.
With TNPDLIIVCARSSQSLWNRLSVLL, the protein stability index turned out to be 2.19.
Take TNPDLIIVCAVSSQSLWNRLSVLL: the protein stability index is 3.29.
As for TNPDLIIVCADSSQSLWNRLSVLL, the protein stability index came out at 3.08.
As for TNPDLIIVCAFSSQSLWNRLSVLL, the protein stability index was 1.67.
As for TNPDLIIVCAPSSQSLWNRLSVLL, the figure is 3.62; as for TNPDLIIVCAYSSQSLWNRLSVLL, 4.08; as for TNPDLIIVCAQNSQSLWNRLSVLL, 1.99.
To TNPDLIIVCAQKSQSLWNRLSVLL belongs 1.89; to TNPDLIIVCAQGSQSLWNRLSVLL, 2.1; to TNPDLIIVCAQPSQSLWNRLSVLL, 1.33.
Regarding TNPDLIIVCAQLSQSLWNRLSVLL, the protein stability index turned out to be 3.9.
To TNPDLIIVCAQYSQSLWNRLSVLL belongs 4.01; to TNPDLIIVCAQDSQSLWNRLSVLL, 2.12.
As for TNPDLIIVCAQCSQSLWNRLSVLL, the figure is 3.33; as for TNPDLIIVCAQFSQSLWNRLSVLL, 3.37.
To TNPDLIIVCAQHSQSLWNRLSVLL belongs 3.49; to TNPDLIIVCAQISQSLWNRLSVLL, 3.02; to TNPDLIIVCAQMSQSLWNRLSVLL, 2.99.
As for TNPDLIIVCAQRSQSLWNRLSVLL, the protein stability index turned out to be 3.06.
To TNPDLIIVCAQESQSLWNRLSVLL belongs 2.22.
